From paper PMC9187738 come the findings set out here.

Assay [1] concerns the target hamster JUNO (hamster). The assay is described as follows: live imaging-based adhesion molecule (LIAM) assay; BHK cells, non-inducible expression (cytomegalovirus promoter); separately transfected cells mixed in equal amounts 4 h after transfection, incubated 20 h, imaged every 6 min for 12 h at 40x, 37 °C, 5% CO2; read-outs: accumulation at the cell interface and translocation to the opposite cell, % of contacting cell pairs.

Assay [2] addresses mouse mCherry-JUNO (mouse) (UniProt Q9EQF4). Described as above.
Assay [3] addresses hamster JUNO (hamster). The assay is described as follows: live imaging-based adhesion molecule (LIAM) assay; HEK293T cells expressing IZUMO1 mixed with HEK293T cells expressing JUNO; read-out: accumulation at the interface of the cells, % of contacting cell pairs.
A further assay deals with pig JUNO (pig). In words: live imaging-based adhesion molecule (LIAM) assay; BHK cells, non-inducible expression (cytomegalovirus promoter); separately transfected cells mixed in equal amounts 4 h after transfection, incubated 20 h, imaged every 6 min for 12 h at 40x, 37 °C, 5% CO2; read-outs: accumulation at the cell interface and translocation to the opposite cell, % of contacting cell pairs.

A further assay deals with human JUNO (human) (UniProt A6ND01). The assay is described as above.
Chain of human JUNO (human) (A6ND01 20-228): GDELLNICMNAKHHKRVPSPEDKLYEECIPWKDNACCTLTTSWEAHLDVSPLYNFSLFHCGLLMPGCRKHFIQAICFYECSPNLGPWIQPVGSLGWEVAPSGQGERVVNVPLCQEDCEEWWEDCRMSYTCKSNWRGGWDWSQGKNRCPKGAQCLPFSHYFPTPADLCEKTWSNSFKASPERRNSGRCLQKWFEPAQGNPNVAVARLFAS

Chain of human IZUMO1 (Q8IYV9 22-350): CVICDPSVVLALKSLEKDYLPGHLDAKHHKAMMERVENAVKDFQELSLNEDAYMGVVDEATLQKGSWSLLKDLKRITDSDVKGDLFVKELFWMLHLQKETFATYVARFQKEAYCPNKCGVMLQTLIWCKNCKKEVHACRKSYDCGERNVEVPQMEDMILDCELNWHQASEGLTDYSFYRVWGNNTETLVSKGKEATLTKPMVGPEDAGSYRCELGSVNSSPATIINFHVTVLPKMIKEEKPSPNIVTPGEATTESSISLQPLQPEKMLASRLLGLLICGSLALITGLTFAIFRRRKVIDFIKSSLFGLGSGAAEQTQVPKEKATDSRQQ
Chain of mouse mCherry-JUNO (mouse) (Q9EQF4 20-222): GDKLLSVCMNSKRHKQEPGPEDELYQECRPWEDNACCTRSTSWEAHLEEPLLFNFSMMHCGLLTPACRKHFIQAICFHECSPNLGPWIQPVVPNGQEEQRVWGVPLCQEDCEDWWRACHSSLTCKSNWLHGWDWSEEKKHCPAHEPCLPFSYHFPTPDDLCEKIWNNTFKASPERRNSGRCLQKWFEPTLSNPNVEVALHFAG

Consider hamster IZUMO1 (natural protein), for which, in the assay with hamster JUNO (hamster) [1], the IZUMO1 accumulation (% of contacting cell pairs) was found to be 77%, the IZUMO1 translocation (% of contacting cell pairs) worked out at 44%, the JUNO accumulation (% of contacting cell pairs) turned out to be 16% and the JUNO translocation (% of contacting cell pairs) was found to be 28%. In assay [2], the IZUMO1 accumulation (% of contacting cell pairs) amounted to 33% and the JUNO accumulation (% of contacting cell pairs) came to 25%.

As to “human IZUMO1 (from UniProt Q8IYV9 22-350) (natural protein)”, in the assay with hamster JUNO (hamster) [3], the IZUMO1 accumulation (% of contacting cell pairs) amounted to 9.3% and the JUNO accumulation (% of contacting cell pairs) was 2.8%.

Regarding pig IZUMO1 (natural protein), the IZUMO1 accumulation (% of contacting cell pairs) with pig JUNO (pig) was found to be 24%. Also, in the assay with hamster JUNO (hamster) [1], the IZUMO1 accumulation (% of contacting cell pairs) was determined as 13% and the JUNO accumulation (% of contacting cell pairs) is 7.1%. Also, in the assay with human JUNO (human), the IZUMO1 accumulation (% of contacting cell pairs) was 48%, the IZUMO1 translocation (% of contacting cell pairs) stood at 3.2%, the JUNO accumulation (% of contacting cell pairs) is 49% and the JUNO translocation (% of contacting cell pairs) stood at 32%.
